# Columns and labels:
# Experiment in all cases: IEDB peptide-MHC binding, purified MHC/competitive/radioactivity; ≥ and ≤ were set here for values at or beyond the usual limits of such assays
# Conditions in all cases: source organism: Bordetella pertussis
# HLA-B*35:01 = molecular target: HLA-B*35:01
# HLA-B*57:01 = molecular target: HLA-B*57:01
# HLA-A*02:01 = molecular target: HLA-A*02:01
# HLA-B*44:03 = molecular target: HLA-B*44:03
# HLA-B*07:02 = molecular target: HLA-B*07:02
sequence,measurement,setting,value
DATLVGAKF,IC50,HLA-B*35:01,59.8 µM
RTRGQARSG,IC50,HLA-B*57:01,11.8 µM
LLGSHVARA,IC50,HLA-A*02:01,2.35 µM
ALAAIASAA,IC50,HLA-A*02:01,12.3 µM
QAIVVGKDL,IC50,HLA-B*44:03,31.8 µM
HVSKEEQYY,IC50,HLA-B*57:01,≥ 70.4 µM
same,IC50,HLA-B*35:01,69.9 µM
YENKSSTPL,IC50,HLA-B*44:03,37.5 µM
KPDRAARVA,IC50,HLA-B*07:02,0.461 µM
YIWGLYQTY,IC50,HLA-B*44:03,0.471 µM
VEDIGGKNY,IC50,HLA-B*44:03,16 µM
HFIGYIYEV,IC50,HLA-A*02:01,0.0161 µM
RVRALAWLL,IC50,HLA-B*57:01,0.709 µM
same,IC50,HLA-B*07:02,0.413 µM
